Test results from article PMC5900712.

Target: T1, YanA86D (monomer) (UniProt Q01842 1-499, A86D)
T1 sequence: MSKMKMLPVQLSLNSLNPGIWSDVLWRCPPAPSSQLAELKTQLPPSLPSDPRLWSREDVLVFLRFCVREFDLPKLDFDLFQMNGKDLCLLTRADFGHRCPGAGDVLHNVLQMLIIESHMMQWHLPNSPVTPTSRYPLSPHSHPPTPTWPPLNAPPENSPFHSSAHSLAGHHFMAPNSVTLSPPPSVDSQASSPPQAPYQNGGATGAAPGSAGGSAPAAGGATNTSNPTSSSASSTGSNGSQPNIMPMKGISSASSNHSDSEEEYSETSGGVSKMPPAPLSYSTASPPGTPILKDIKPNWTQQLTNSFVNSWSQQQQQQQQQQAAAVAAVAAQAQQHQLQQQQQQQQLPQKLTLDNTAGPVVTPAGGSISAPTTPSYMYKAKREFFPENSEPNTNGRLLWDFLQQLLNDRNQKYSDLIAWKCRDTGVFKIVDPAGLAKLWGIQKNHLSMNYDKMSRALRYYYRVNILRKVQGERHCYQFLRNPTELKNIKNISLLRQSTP
Test: competition

B1: MHE ETS site 6 (dsDNA)
DNA 1: AAATGCTTAAACAGGGAAATCGTCTTGG
DNA 2: CCAAGACGATTTCCCTGTTTAAGCATTT
  binding result: no binding
